# Experimental data reported in paper PMC12355757, “TRIM6 ablation reverses ICB resistance in MSS gastric cancer by unleashing cGAS-STING-dependent antitumor immunity” (Journal of Experimental & Clinical Cancer Research : CR, 2025).
# B1: GST-TRIM6 (full length) (enzyme, human, UniProt Q9C030-2 1-516, looked up)
# chain: MCGSERILQAGNILEIRVGQAGARRVATMTSPVLVDIREEVTCPICLELLTEPLSIDCGHSFCQACITPNGRESVIGQEGERSCPVCQTSYQPGNLRPNRHLANIVRRLREVVLGPGKQLKAVLCADHGEKLQLFCQEDGKVICWLCERSQEHRGHHTFLVEEVAQEYQEKFQESLKKLKNEEQEAEKLTAFIREKKTSWKNQMEPERCRIQTEFNQLRNILDRVEQRELKKLEQEEKKGLRIIEEAENDLVHQTQSLRELISDLERRCQGSTMELLQDVSDVTERSEFWTLRKPEALPTKLRSMFRAPDLKRMLRVCRELTDVQSYWVDVTLNPHTANLNLVLAKNRRQVRFVGAKVSGPSCLEKHYDCSVLGSQHFSSGKHYWEVDVAKKTAWILGVCSNSLGPTFSFNHFAQNHSAYSRYQPQSGYWVIGLQHNHEYRAYEDSSPSLLLSMTVPPRRVGVFLDYEAGTVSFYNVTNHGFPIYTFSKYYFPTTLCPYFNPCNCVIPMTLRRPSS
# notes: TRIM6, human, full-length, cloned into the pGEX-6T-1 vector; also called full-length TRIM6
# Biological target: T1, Recombinant His-cGAS (human, UniProt Q8N884 1-522)
# T1 construct: cGAS cloned into the pET28a plasmid for the GST pull-down; also called purified His-cGAS
# T1 sequence (Q8N884 whole entry): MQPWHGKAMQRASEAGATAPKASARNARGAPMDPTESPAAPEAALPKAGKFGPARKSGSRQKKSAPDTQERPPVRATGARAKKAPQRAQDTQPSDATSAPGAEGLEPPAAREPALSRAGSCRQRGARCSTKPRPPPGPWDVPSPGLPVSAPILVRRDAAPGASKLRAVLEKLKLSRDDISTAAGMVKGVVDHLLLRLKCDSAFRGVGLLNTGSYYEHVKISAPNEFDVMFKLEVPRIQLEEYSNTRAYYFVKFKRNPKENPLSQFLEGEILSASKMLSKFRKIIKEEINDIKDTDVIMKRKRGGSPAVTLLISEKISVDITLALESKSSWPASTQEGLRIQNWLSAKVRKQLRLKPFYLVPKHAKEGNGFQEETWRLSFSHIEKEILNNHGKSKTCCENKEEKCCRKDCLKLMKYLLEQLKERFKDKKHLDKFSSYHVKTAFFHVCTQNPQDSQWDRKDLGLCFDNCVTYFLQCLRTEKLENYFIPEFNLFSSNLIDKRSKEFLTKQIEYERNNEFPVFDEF
# Assay: pull-down; purified His-cGAS incubated with GST, GST-TRIM6 or its truncated mutants on GST-tag resin overnight at 4 °C; 50 mM Tris pH 8.0, 200 mM NaCl, 1 mM EDTA, 1% NP-40, 1 mM DTT, 1 mM MgCl2; immunoblot with anti-His or anti-cGAS
# Details: both partners purified
binder,measurement,value
B1,binding result,binds
